Patent US20240166733A1 (VERSITECH, published 2024)

Columns and labels:
Assay in all cases: ELISA, FABP coated on plate, HRP anti-mouse IgG detection, OD450
[1] = molecular target: T1, human H-FABP recombinant protein (human, UniProt P05413 1-133, limits assumed)
T1 construct: also called human heart-FABP
Method: (§1) The mouse or human A-FABP, E-FABP, and H-FABP recombinant proteins ([…]) were coated on 96-well plates overnight for ELISA binding assay to evaluate the reactivity and specificity of monoclonal antibodies with various FABPs. [0155] 100 μL of 6H2 (1 μg/mL) was added to the wells and incubated for 1 h at room temperature. The plates were then washed three times with phosphate-buffered saline (PBS), followed by incubation with 0.2 μg/mL HRP-conjugated-[…] H+L (Proteintech, SA00001-1, Japan) as the detection antibody at room temperature for 1 hour. After washing with PBS, TMB chromogen solution (Beyotime, P0209, China) was added for color development; 2M H₂SO₄ was added to the wells to stop the enzyme-induced color reactions; and the absorbance at 450 nm was measured with a microtiter plate reader.

[2] = molecular target: T2, mouse H-FABP recombinant protein (mouse, UniProt P11404 1-133, limits assumed)
T2 construct: also called mouse heart-FABP
Method: as §1

[3] = molecular target: T3, human E-FABP recombinant protein (human, UniProt Q01469 1-135, limits assumed)
T3 construct: also called human epidermal-FABP
Method: as §1

[4] = molecular target: T4, mouse E-FABP recombinant protein (mouse, UniProt Q05816 1-135, limits assumed)
T4 construct: also called mouse epidermal-FABP
T4 sequence (looked up): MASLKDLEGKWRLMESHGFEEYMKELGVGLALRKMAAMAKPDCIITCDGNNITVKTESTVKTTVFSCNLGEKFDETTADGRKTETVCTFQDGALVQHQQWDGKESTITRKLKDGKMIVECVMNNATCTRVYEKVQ
Method: as §1

Measured: binding result

T3 sequence (Q01469 whole entry): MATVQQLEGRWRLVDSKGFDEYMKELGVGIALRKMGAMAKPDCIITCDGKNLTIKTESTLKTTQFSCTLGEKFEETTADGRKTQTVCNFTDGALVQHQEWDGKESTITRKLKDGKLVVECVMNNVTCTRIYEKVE
T1 sequence (P05413 whole entry): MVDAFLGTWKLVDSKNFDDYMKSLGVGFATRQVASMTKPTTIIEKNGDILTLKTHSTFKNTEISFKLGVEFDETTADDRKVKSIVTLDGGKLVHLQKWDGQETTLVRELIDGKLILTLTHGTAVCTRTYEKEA
T2 sequence (P11404 whole entry): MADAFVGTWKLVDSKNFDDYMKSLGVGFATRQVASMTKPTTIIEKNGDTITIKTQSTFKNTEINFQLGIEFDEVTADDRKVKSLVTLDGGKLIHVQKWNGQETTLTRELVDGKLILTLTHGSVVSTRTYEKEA

B1: A-FABP neutralizing monoclonal antibody 6H2 (antibody, V domains shown)
VH: VKLQESGPELVKPGASVKIPCKASGYTFTDYNMDWVRQSRGKSLEWIGDINPYNGDTIYNQNFKGKATLTVDKSSTTAYLELRSLTSEDTAVYYCASGYGFWGQGTTVTVSS
VL: DIVMTQAPLSLPVSLGAQASISCRSSQSLVYINGNTYLHWYLQKPGQSPKLLIYKVSNRFSGVPDRFSGSGSGTDFTLKISRVEAEDLGVYFCSQSTHVPYTFGGGTKLEIK
notes: also called 6H2 mAb
no binding (tested: 6H2 at 1 µg/mL): [1] | [2] | [3] | [4]
